Experimental data published in the supplement of paper PMC10126150.
± gives the standard deviation of the averaged measurements.

Test system: ATP
Assay: switch fluorescence ratio, 500 uM ATP over buffer (Cy3 cluster intensity, sum of 5 cycles each) (fold (ratio)); higher = stronger signal-on switching upon ATP binding; sequences stand for … in TCGTCGGCAGCGTCAGATGTGTATAAGAGACAGTTTTTTTTTTTTTTTTTTTTTTTTT…TC
Settings: aptamer strand: ATP DNA aptamer (quencher-CACCTGGGGGAGTATTGCGGAGGAAGG + anchor), 100 nM annealed; ATP concentration: 500 uM
Procedure, shortened: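 Exposure to 500 uM ATP lasted 15 min at 22 °C before imaging, and a selection-buffer image was taken beforehand, for Cy3-labelled switching-strand clusters on a modified Illumina MiSeq flow-cell annealed to 100 nM quencher-labelled ATP aptamer. Five buffer/ATP cycles were run with NaOH stripping and re-annealing between them. The fluorescence ratio per cluster is summed target-cycle over summed buffer-cycle Cy3 intensity, averaged per switch-domain sequence. Clusters outside 100-1000 RFU were excluded.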

## CATTGCAGTG
  switch fluorescence ratio: 1.03 ± 0.02

## TTATATTTAG
  switch fluorescence ratio: 0.988 ± 0.011

## GGCCATACGT
  switch fluorescence ratio: 1.09 ± 0.094

## AGAATGGAAC
  switch fluorescence ratio: 0.976 ± 0.056

## GCCGGTAGGG
  switch fluorescence ratio: 0.98 ± 0.031

## CTAAACCGGT
  switch fluorescence ratio: 0.989 ± 0.015

## ACTTGGTGGG
  switch fluorescence ratio: 0.986 ± 0.049

## AGTAGTTATT
  switch fluorescence ratio: 0.965 ± 0.011

## AAATTGATGG
  switch fluorescence ratio: 1 ± 0.084

## TTGGTTTTTG
  switch fluorescence ratio: 1 ± 0.037

## ACATGTCTGG
  switch fluorescence ratio: 1.001 ± 0.0016

## GAGTGCGCTG
  switch fluorescence ratio: 1.02 ± 0.04

## TAATTCGAG
  switch fluorescence ratio: 1.04 ± 0.029

## AGAGTCAGCA
  switch fluorescence ratio: 1.02 ± 0.021

## GGAATTGGCG
  switch fluorescence ratio: 1.03 ± 0.023

## AGATTTCACT
  switch fluorescence ratio: 1.01 ± 0.016

## TCCAGTTAGG
  switch fluorescence ratio: 0.998 ± 0.051

## AAGAAGGTTG
  switch fluorescence ratio: 0.9847 ± 0.0061

## ATAGAGTTAG
  switch fluorescence ratio: 0.982 ± 0.011

## AGCACGAGGG
  switch fluorescence ratio: 0.9816 ± 0.0093

## GGGCTGGAGG
  switch fluorescence ratio: 0.983 ± 0.025

## CCAGCGGCCA
  switch fluorescence ratio: 1.02 ± 0.025

## GGGATTGTGT
  switch fluorescence ratio: 0.963 ± 0.055

## CAAACGCCCG
  switch fluorescence ratio: 0.9968 ± 0.0073

## TTTTGTGGTT
  switch fluorescence ratio: 1.02 ± 0.065

## TTGTTTGTAG
  switch fluorescence ratio: 1.03 ± 0.052

## ACCGAGTTCT
  switch fluorescence ratio: 0.99 ± 0.057

## TTATGGTGCA
  switch fluorescence ratio: 0.99 ± 0.023

## CGGGTTCGTG
  switch fluorescence ratio: 0.972 ± 0.029

## CCGGTTAAGC
  switch fluorescence ratio: 1.2 ± 0.057

## TGAGTTCGTA
  switch fluorescence ratio: 1.02 ± 0.012

## GCCCGGGGGA
  switch fluorescence ratio: 1.94 ± 1.3

## TGGGTATACG
  switch fluorescence ratio: 1.01 ± 0.049

## ACACAATTTT
  switch fluorescence ratio: 1.01 ± 0.026

## ACATGGTTAG
  switch fluorescence ratio: 0.987 ± 0.03

## AACCGTTTTT
  switch fluorescence ratio: 1.05 ± 0.063

## AGAGGGGGCG
  switch fluorescence ratio: 1.01 ± 0.039

## TACTCTAAAA
  switch fluorescence ratio: 1.08 ± 0.022

## GCGCCAAGAG
  switch fluorescence ratio: 1.29 ± 0.11

## GCGCCGGAG
  switch fluorescence ratio: 1.0019 ± 0.00089

## TGTAATGGGG
  switch fluorescence ratio: 0.966 ± 0.015

## TGGCTTAGTT
  switch fluorescence ratio: 0.9956 ± 0.0026

## GATTGGTTGT
  switch fluorescence ratio: 1.01 ± 0.022

## AAATATGGGC
  switch fluorescence ratio: 0.961 ± 0.022

## CAAAAGTGAT
  switch fluorescence ratio: 1.01 ± 0.024

## ATTTGTGTAC
  switch fluorescence ratio: 1.047 ± 0.0071

## CATAATGGTG
  switch fluorescence ratio: 1.02 ± 0.013

## TCTCTTTCTG
  switch fluorescence ratio: 0.9729 ± 0.0073

## AGATCTTCTT
  switch fluorescence ratio: 0.987 ± 0.015

## GGCTTACTAT
  switch fluorescence ratio: 1.01 ± 0.02

## CTGAAGCTCA
  switch fluorescence ratio: 1.91 ± 0.044

## TTTCTAGGGG
  switch fluorescence ratio: 1.01 ± 0.028

## TGATGGAGTA
  switch fluorescence ratio: 0.969 ± 0.016

## TCGACCCAGC
  switch fluorescence ratio: 1.104 ± 0.0032

## GCCTTGTTCA
  switch fluorescence ratio: 0.993 ± 0.022

## TGGACCGGTT
  switch fluorescence ratio: 1.034 ± 0.0016

## CGCGGGAATG
  switch fluorescence ratio: 1.05 ± 0.033

## TGACTAGGGG
  switch fluorescence ratio: 0.949 ± 0.1

## TAAAGGGTAA
  switch fluorescence ratio: 0.9888 ± 0.0044

## CGATGTGCGG
  switch fluorescence ratio: 1.03 ± 0.062

## TACATTAGGC
  switch fluorescence ratio: 1.05 ± 0.018

## TTGAGGCCTT
  switch fluorescence ratio: 1.01 ± 0.022

## TTAAGAACCT
  switch fluorescence ratio: 1.31 ± 0.13

## ATGGTTTAA
  switch fluorescence ratio: 1 ± 0.044

## CGGACCAAGG
  switch fluorescence ratio: 1 ± 0.077

## GGGTGCAATT
  switch fluorescence ratio: 1.05 ± 0.028

## TTGTATGTAC
  switch fluorescence ratio: 1.22 ± 0.13

## CAGTGTTAGG
  switch fluorescence ratio: 1 ± 0.034

## AATCTGGTGT
  switch fluorescence ratio: 1.02 ± 0.054

## CCAAGTTGCC
  switch fluorescence ratio: 0.9929 ± 0.0092

## CTCTGCGGTT
  switch fluorescence ratio: 1.891 ± 0.0039

## ATTGTGGGGT
  switch fluorescence ratio: 0.977 ± 0.04

## GCAGTAAAGC
  switch fluorescence ratio: 1.03 ± 0.032

## TACGGGAGTC
  switch fluorescence ratio: 1.06 ± 0.16

## GGGGCTTCTA
  switch fluorescence ratio: 0.957 ± 0.018

## GGGAAGAGGT
  switch fluorescence ratio: 0.988 ± 0.027

## GATGATGCTG
  switch fluorescence ratio: 1.03 ± 0.017

## GAGTTACATG
  switch fluorescence ratio: 1.02 ± 0.048

## TATTAGCTAT
  switch fluorescence ratio: 0.998 ± 0.037

## TTTTAACGAA
  switch fluorescence ratio: 1.01 ± 0.013

## TTAAGCCCTT
  switch fluorescence ratio: 1.04 ± 0.036

## AAGATGGCAG
  switch fluorescence ratio: 0.986 ± 0.029

## TCGGAGCTTC
  switch fluorescence ratio: 4.06 ± 1.4

## AACATTGGTC
  switch fluorescence ratio: 1.01 ± 0.017

## TAATTAAATA
  switch fluorescence ratio: 1.04 ± 0.038

## ACTGAGGGCG
  switch fluorescence ratio: 1.02 ± 0.025

## TGAGTATTGG
  switch fluorescence ratio: 0.99 ± 0.027

## GGACGCCTTT
  switch fluorescence ratio: 0.9753 ± 0.0077

## AGCGCCGAGT
  switch fluorescence ratio: 0.973 ± 0.045

## ATGCTAGTTG
  switch fluorescence ratio: 0.98924 ± 0.0007

## CACCACGGCA
  switch fluorescence ratio: 1.1 ± 0.045

## CTTAACGGCG
  switch fluorescence ratio: 0.968 ± 0.044

## GGAGTCGTTA
  switch fluorescence ratio: 1 ± 0.041

## CAATGAGGG
  switch fluorescence ratio: 0.997 ± 0.022

## GGCATTCATT
  switch fluorescence ratio: 0.989 ± 0.033

## ATTGTCTAGC
  switch fluorescence ratio: 0.999 ± 0.019

## ACATTGGGAT
  switch fluorescence ratio: 0.998 ± 0.022

## TTAGGAGTGT
  switch fluorescence ratio: 0.9863 ± 0.0051

## GACCGTTTGA
  switch fluorescence ratio: 1.03 ± 0.03

## TGATTATTT
  switch fluorescence ratio: 0.978 ± 0.032

## TGGAAATTGT
  switch fluorescence ratio: 0.9944 ± 0.0077

## AAGTCCAATG
  switch fluorescence ratio: 1.01 ± 0.023

## ATTTGAGTTT
  switch fluorescence ratio: 1.01 ± 0.038

## CGATACTTGA
  switch fluorescence ratio: 0.99 ± 0.038

## TGCATATATA
  switch fluorescence ratio: 1.29 ± 0.36

## CCTTTTTCTT
  switch fluorescence ratio: 1.04 ± 0.029

## AAAATTGCGT
  switch fluorescence ratio: 1.16 ± 0.2

## GGGGAGTTGG
  switch fluorescence ratio: 0.969 ± 0.025

## TGATTGGTAA
  switch fluorescence ratio: 0.939 ± 0.021

## GAATGTCCGT
  switch fluorescence ratio: 0.992 ± 0.015

## ATATATGGGG
  switch fluorescence ratio: 0.987 ± 0.045

## TTGAGCACGG
  switch fluorescence ratio: 0.998 ± 0.019

## GTTTGTACTC
  switch fluorescence ratio: 0.997 ± 0.037

## GGTACACAGC
  switch fluorescence ratio: 1.02 ± 0.015

## TTTGTTATGT
  switch fluorescence ratio: 0.988 ± 0.019

## CGTCAATTGA
  switch fluorescence ratio: 1.01 ± 0.036

## AGAAAGGGCA
  switch fluorescence ratio: 1.04 ± 0.03

## TCCATCAGTA
  switch fluorescence ratio: 0.985 ± 0.024

## GATGTCGTGC
  switch fluorescence ratio: 1.03 ± 0.031

## CAGTGCGTTT
  switch fluorescence ratio: 1.01 ± 0.013

## ATTGTTTAGC
  switch fluorescence ratio: 1.01 ± 0.075

## ATCCGGACCC
  switch fluorescence ratio: 1.08 ± 0.1

## CTATGTTCGC
  switch fluorescence ratio: 0.954 ± 0.023

## GCTGGGGGCC
  switch fluorescence ratio: 0.981 ± 0.028

## TTGTAAAATA
  switch fluorescence ratio: 0.978 ± 0.058

## CTGTCATTTG
  switch fluorescence ratio: 0.985 ± 0.03

## TTTGTAGATC
  switch fluorescence ratio: 1.06 ± 0.066

## GAGTAGAGGG
  switch fluorescence ratio: 0.954 ± 0.014

## ATTAAGGATT
  switch fluorescence ratio: 1.01 ± 0.016

## TTCAGTTCGA
  switch fluorescence ratio: 0.9971 ± 0.0057

## TGGTTCTGGG
  switch fluorescence ratio: 0.973 ± 0.013

## CGGGGAATTT
  switch fluorescence ratio: 1.01 ± 0.022

## GTAATTTAGG
  switch fluorescence ratio: 0.996 ± 0.042

## GGGGAAGAAC
  switch fluorescence ratio: 1.14 ± 0.18

## GTTTATGAGC
  switch fluorescence ratio: 1 ± 0.022

## GGGGAGGCAT
  switch fluorescence ratio: 0.954 ± 0.027

## TCAGGGGCTT
  switch fluorescence ratio: 1.16 ± 0.28

## GAGTTATTGT
  switch fluorescence ratio: 0.9806 ± 0.0095

## CGGGAATTAG
  switch fluorescence ratio: 1.01 ± 0.035

## AAGGTTTTTA
  switch fluorescence ratio: 0.993 ± 0.029

## AGCTACCTTA
  switch fluorescence ratio: 1.09 ± 0.05

## TCATTCGGTT
  switch fluorescence ratio: 1.02 ± 0.016

## TGAAAGATGT
  switch fluorescence ratio: 1.01 ± 0.035

## AGAGGGATAC
  switch fluorescence ratio: 1.07 ± 0.035

## GGTTGAAAAG
  switch fluorescence ratio: 0.979 ± 0.015

## GTACCTGTCT
  switch fluorescence ratio: 0.99 ± 0.017

## GCGGAATGGA
  switch fluorescence ratio: 1.02 ± 0.013

## TCAAACTGTT
  switch fluorescence ratio: 1.08 ± 0.025

## CCGGTAGGGT
  switch fluorescence ratio: 1.36 ± 0.61

## TTTATGAAGG
  switch fluorescence ratio: 1 ± 0.018

## GGTATACGTA
  switch fluorescence ratio: 0.935 ± 0.071

## CATGGTTGGG
  switch fluorescence ratio: 0.984 ± 0.037

## ATAGTTGGAT
  switch fluorescence ratio: 0.98 ± 0.011

## TGGGGGACTC
  switch fluorescence ratio: 0.988 ± 0.023

## TTGAGGCCCA
  switch fluorescence ratio: 1.17 ± 0.22

## AAAAAATATT
  switch fluorescence ratio: 1.029 ± 0.0043

## ATGACTTCGG
  switch fluorescence ratio: 0.99 ± 0.028
